# Experimental data: patent US20020064528A1 (published 2002)
# Experiments:
# [1] = target: KDR expressed on the surface of HUVEC (human, UniProt P35968 20-1356); experiment: cell-based or functional assay
# [2] = target: T1, soluble fusion protein KDR-AP (human, UniProt P35968 20-764); experiment: direct binding ELISA on KDR-coated plate, detected by anti-E tag antibody-HRP
# T1 construct: extracellular domain; Expressed in NIH 3T3 cells; also called KDR-alkaline phosphatase fusion protein; immobilized KDR; not shown: human placental alkaline phosphatase (AP) of the vector AP-Tag
# [3] = target: T1, soluble fusion protein KDR-AP; experiment: BIAcore, KDR-AP immobilized (Table 2)
# Protocol: Sensorgrams were obtained at each concentration and were evaluated using a program, BIA Evaluation 2.0, to determine the rate constants kon and koff. Kd was calculated as the ratio of rate constants koff/kon.
# *All rates are determined by surface plasmon resonance using BIAcore system and are mean of at least three separate determinations.
# T1 sequence (P35968 20-764): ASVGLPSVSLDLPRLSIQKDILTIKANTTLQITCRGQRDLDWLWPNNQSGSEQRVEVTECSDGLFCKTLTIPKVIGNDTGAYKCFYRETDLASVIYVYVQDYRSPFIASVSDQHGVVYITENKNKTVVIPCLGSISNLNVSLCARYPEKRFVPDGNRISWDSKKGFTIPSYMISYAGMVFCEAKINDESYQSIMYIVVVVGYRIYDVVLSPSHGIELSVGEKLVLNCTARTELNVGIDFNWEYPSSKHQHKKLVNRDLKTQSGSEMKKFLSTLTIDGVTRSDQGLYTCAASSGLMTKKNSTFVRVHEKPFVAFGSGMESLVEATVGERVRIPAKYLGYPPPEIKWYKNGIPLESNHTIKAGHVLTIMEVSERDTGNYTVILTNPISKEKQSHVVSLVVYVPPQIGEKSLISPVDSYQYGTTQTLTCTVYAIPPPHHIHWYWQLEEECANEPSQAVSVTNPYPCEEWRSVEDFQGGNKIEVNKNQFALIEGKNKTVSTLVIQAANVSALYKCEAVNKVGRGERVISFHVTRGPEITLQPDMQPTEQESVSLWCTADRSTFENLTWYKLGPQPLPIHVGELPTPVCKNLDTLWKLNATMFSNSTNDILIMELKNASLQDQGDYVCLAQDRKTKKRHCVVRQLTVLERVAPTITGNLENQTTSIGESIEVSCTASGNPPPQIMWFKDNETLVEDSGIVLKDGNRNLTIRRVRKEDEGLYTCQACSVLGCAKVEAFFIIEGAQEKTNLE
# Sequence of KDR expressed on the surface of HUVEC (P35968 20-1356): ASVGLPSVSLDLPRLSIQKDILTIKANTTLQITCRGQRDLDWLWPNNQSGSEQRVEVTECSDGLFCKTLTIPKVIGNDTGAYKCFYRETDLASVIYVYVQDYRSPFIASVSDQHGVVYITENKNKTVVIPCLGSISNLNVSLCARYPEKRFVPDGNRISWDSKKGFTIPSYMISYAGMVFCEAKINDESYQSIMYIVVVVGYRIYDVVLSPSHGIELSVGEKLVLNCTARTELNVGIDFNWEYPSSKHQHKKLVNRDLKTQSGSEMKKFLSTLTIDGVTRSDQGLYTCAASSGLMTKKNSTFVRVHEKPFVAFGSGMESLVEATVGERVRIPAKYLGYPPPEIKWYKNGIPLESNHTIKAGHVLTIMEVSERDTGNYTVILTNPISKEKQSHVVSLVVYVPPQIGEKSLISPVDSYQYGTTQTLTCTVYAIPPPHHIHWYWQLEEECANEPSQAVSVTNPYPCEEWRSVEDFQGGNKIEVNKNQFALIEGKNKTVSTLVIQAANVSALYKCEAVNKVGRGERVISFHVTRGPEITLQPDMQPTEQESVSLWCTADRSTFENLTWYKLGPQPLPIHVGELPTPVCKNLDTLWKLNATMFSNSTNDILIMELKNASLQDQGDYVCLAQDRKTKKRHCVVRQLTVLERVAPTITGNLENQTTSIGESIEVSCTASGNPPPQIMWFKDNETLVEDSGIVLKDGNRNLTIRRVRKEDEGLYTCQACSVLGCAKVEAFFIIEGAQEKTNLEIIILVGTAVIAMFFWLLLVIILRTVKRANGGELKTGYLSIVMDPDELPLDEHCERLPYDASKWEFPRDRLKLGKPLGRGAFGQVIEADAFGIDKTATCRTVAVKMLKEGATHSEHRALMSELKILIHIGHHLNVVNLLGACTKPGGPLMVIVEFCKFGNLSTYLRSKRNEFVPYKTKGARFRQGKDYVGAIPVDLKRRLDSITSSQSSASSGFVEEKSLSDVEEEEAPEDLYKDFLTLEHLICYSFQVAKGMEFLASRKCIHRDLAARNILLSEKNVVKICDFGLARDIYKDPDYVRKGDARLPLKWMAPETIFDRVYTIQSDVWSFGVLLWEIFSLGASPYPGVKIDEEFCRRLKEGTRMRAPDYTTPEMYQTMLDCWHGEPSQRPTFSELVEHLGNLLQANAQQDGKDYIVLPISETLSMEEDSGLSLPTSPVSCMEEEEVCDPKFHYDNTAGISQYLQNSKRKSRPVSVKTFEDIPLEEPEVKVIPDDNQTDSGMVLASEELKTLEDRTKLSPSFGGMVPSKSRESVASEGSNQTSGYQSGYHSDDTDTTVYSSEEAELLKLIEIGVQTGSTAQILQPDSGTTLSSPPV
"EC50, antibody concentration that inhibited 50% of VEGF-stimulated mitogenesis of HUVEC ([3H]-TdR incorporation) [1] [nM]",EC50 (read off the curve) [2] [nM],fold higher affinity than the parent scFv [3] [fold],Binder
~5,~0.8,,scFv p1C11 (scFv) QVKLQQSGAELVGSGASVKLSCTTSGFNIKDFYMHWVKQRPEQGLEWIGWIDPENGDSDYAPKFQGKATMTADSSSNTAYLQLSSLTSEDTAVYYCNAYYGDYEGYWGQGTTVTVSSGGGGSGGGGSGGGGSDIELTQSPAIMSASPGEKVTITCSASSSVSYMHWFQQKPGTSPKLWIYSTSNLASGVPARFSGSGSGTSYSLTISRMEAEDAATYYCQQRSSYPFTFGSGTKLEIK
,,~2.5,"chimeric anti-KDR antibody c-p1C11 (antibody, V domains shown, Bivalent chimeric IgG1/kappa with the mouse variable domains of p1C11; expressed in COS cells and purified on Protein G. The leader peptide added for secretion is not part of the mature protein; also called Chimeric-p1C11; c-p1C11 IgG) VH: QVKLQQSGAELVGSGASVKLSCTTSGFNIKDFYMHWVKQRPEQGLEWIGWIDPENGDSDYAPKFQGKATMTADSSSNTAYLQLSSLTSEDTAVYYCNAYYGDYEGYWGQGTTVTVSS VL: DIELTQSPAIMSASPGEKVTITCSASSSVSYMHWFQQKPGTSPKLWIYSTSNLASGVPARFSGSGSGTSYSLTISRMEAEDAATYYCQQRSSYPFTFGSGTKLEIK"
